From patent US20250361299A1 (ZHEJIANG SHIMAI PHARMACEUTICAL, published 2025)
One block for each binder: values may come before it.

Molecular target: T1, Recombinant human EGFR (human, UniProt P00533 25-645)
T1 construct: Bought protein coated on ELISA plates (100 ng per well); also called human antigen EGFR
Experiment: ELISA on coated human EGFR, antibody not treated with uPA
Protocol: To determine the binding affinity of proBiTEs to CD3 and EGFR, ELISA was performed according to standard protocols. Briefly, human antigen CD3 and EGFR were coated on Corning EIA/RIA high-binding 96-well plates (Corning Inc.) at 100 ng per well overnight at 4° C. and blocked with 3% nonfat milk in PBS (pH7.4). For cleavage with urokinase (uPA), 30 μg antibodies were mixed with or without 0.3 μg recombinant human uPA (50 μg/mL) (Sino Biological) in PBS (pH7.4) and incubated at room temperature for 4 hour. Then the mixture with or without uPA was diluted in a fivefold gradient and incubated at room temperature for 2 h. The plates were washed with PBS containing 1% nonfat milk. Bound antibodies were detected by HRP-conjugated streptavidin (Sigma). The assay was developed at room temperature with TMB substrate (Solarbio) and monitored at 450 nm with a microplate reader. The half-maximal binding (EC₅₀) was calculated by fitting the data to the Langmuir adsorption isotherm.

binding result: binds
B1: 1.6.1M-Pa proBiTE (bispecific antibody)
heavy: QDGNEEMGGGSQDGNEEMGGIGGGSGGGGSGLSGRSDNHGGGGSEVQLVESGGGLVQPGGSLRLSCAASGFTFNTYAMNWVRQAPGKGLEWVARIRSKYNNYATYYADSVKGRFTISRDDSKNTLYLQMNSLRAEDTAVYYCARHGNFGSSYVSYFAYWGQGTTVTVSSASTKGPSVFPLAPSSKSTSGGTAALGCLVKDYFPEPVTVSWNSGALTSGVHTFPAVLQSSGLYSLSSVVTVPSSSLGTQTYICNVNHKPSNTKVDKKVEPKSCPPCPAPEAAGAPSVFLFPPKPKDTLMISRTPEVTCVVVDVSHEDPEVKFNWYVDGVEVHNAKTKPREEQYNSTYRVVSVLTVLHQDWLNGKEYKCKVSNKALPAPIEKTISKAKGQPREPQVYTLPPSRDELTKNQVSLLCLVKGFYPSDIAVEWESNGQPENNYKTTPPVLDSDGSFFLHSKLTVDKSRWQQGNVFSCSVMHEALHNHYTQKSLSLSPGK
light: QVQLQESGPGLVKPSETLSLTCTVSGGSVSSGDYYWTWIRQSPGKGLEWIGHIYYSGNTNYNPSLKSRLTISIDTSKTQFSLKLSSVTAADTAIYYCVRDRVTGAFDIWGQGTMVTVSSGGGGSGGGGSGGGGSGGGGSDIQMTQSPSSLSASVGDRVTITCQASQDISNYLNWYQQKPGKAPKLLIYDASNLETGVPSRFSGSGSGTDFTFTISSLQPEDIATYFCQHFDHLPLAFGGGTKVEIKGGGGSGGGGSGGGGSGGGGSEIVVTQSPATLSVSPGERATLSCRSSTGAVTTSNYANWVQQKPGQAPRGLIGGANKRAPGVPARFSGSLSGDEATLTISSLQSEDFAVYYCALWYSNLWVFGQGTKLEIKRTVAAPSVFIFPPSDEQLKSGTASVVCLLNNFYPREAKVQWKVDNALQSGNSQESVTEQDSKDSTYSLSSTLTLSKADYEKHKVYACEVTHQGLSSPVTKSFNRGECPPCPAPEAAGAPSVFLFPPKPKDTLMISRTPEVTCVVVDVSHEDPEVKFNWYVDGVEVHNAKTKPREEQYNSTYRVVSVLTVLHQDWLNGKEYKCKVSNKALPAPIEKTISKAKGQPREPQVYTLPPSRDELTKNQVSLLCLVKGFYPSDIAVEWESNGQPENNYKTTPPVLDSDGSFFLHSKLTVDKSRWQQGNVFSCSVMHEALHNHYTQKSLSLSPGK
notes: Intact, not treated with uPA; As 1.6.1M proBiTE but with a panitumumab anti-EGFR scFv in the light chain

binding result: binds
B2: 1.6.1M-2-1-Pa proBiTE (bispecific antibody)
heavy: QDGNEEMGGGSQDGNEEMGGIGGGSGGGGSGLSGRSDNHGGLSGRSDNHGGSEVQLVESGGGLVQPGGSLRLSCAASGFTFNTYAMNWVRQAPGKGLEWVARIRSKYNNYATYYADSVKGRFTISRDDSKNTLYLQMNSLRAEDTAVYYCARHGNFGSSYVSYFAYWGQGTTVTVSSASTKGPSVFPLAPSSKSTSGGTAALGCLVKDYFPEPVTVSWNSGALTSGVHTFPAVLQSSGLYSLSSVVTVPSSSLGTQTYICNVNHKPSNTKVDKKVEPKSCPPCPAPEAAGAPSVFLFPPKPKDTLMISRTPEVTCVVVDVSHEDPEVKFNWYVDGVEVHNAKTKPREEQYNSTYRVVSVLTVLHQDWLNGKEYKCKVSNKALPAPIEKTISKAKGQPREPQVYTLPPSRDELTKNQVSLLCLVKGFYPSDIAVEWESNGQPENNYKTTPPVLDSDGSFFLHSKLTVDKSRWQQGNVFSCSVMHEALHNHYTQKSLSLSPGK
light: B1 light
notes: Intact, not treated with uPA
